Experimental data taken from patent publication US20230045151A1, “COMPOSITIONS AND METHODS” (MONASH UNIVERSITY, priority 2020, published 2023).

System: CCL20
Test: In vitro stimulation of lung cells enriched for airway epithelial cells, chemokine release
Assay type: cell-based, mouse
Settings: LPS 10 μg/ml, 24 hours; EGF 100 ng/ml, amphiregulin 500 ng/ml or gefitinib 0.16 μM; lower efficacy than PCS
Method: Mice were euthanized by CO2 inhalation, instilled with a 1.5 ml dispase II (Sigma-Aldrich) intratracheally, followed by intratracheal injection of 0.5 ml 1% low melting point agarose (Sigma-Aldrich). Lungs were then covered with ice for 3 min, removed and placed in a 15 ml falcon tube with 2 ml of dispase II, and incubated for 45 min with gentle agitation. This was followed by mechanical disruption of the lung lobes using forceps in DMEM supplemented with DNAse I (Sigma-Aldrich, 1U/ml), filtration through 70- and 40-μM cell strainers (Falcon®, Corning) and lysis of erythrocytes using red blood cell lysing buffer (BD Biosciences). Lung cells were plated in a flat-bottom 24-well or 96-well plates (Costar) coated with fibronectin (Sigma-Aldrich, 10 μg/ml) at the density of 1 mln or 0.2 mln cells/well, respectively.
5% CO2, after which the supernatant was collected and stored at −20° C. until further use.

B1: amphiregulin: low affinity EGFR ligand (protein, UniProt P15514 101-187, looked up)
Amphiregulin: SVRVEQVVKPPQNKTESENTSDKPKRKKKGGKNGKNRRNRKKKNPCNAEFQNFCIHGECKYIEHLEAVTCKCQQEYFGERCGEKSMK
modifications: Amphiregulin
  CCL20 production by lung cells stimulated with LPS: selective reduction
